Data: US20230250158A1 (TALEM THERAPEUTICS, published 2023)
Residue numbers refer to the chain shown, from its start. Where two headings read alike, the source gives them in different places.

Experiments:
[1] = biological target: SARS-CoV-2 Spike protein on VSV pseudotyped virus particles (Wuhan-1 isolate Spike sequence) (SARS-CoV-2, UniProt P0DTC2 13-1273); test: cell-based or functional assay
Wuhan-1 = test: flow cytometry on Spike-transfected HEK293F cells, heat map
SARS-CoV-2 Spike RBD-hFc [2] = biological target: T1, SARS-CoV-2 Spike RBD-hFc (SARS-CoV-2, UniProt P0DTC2 319-541)
SARS-CoV-2 Spike S1-hFc [3] = biological target: T2, SARS-CoV-2 Spike S1-hFc (SARS-CoV-2, UniProt P0DTC2 16-685)
SARS-CoV-2 Spike S1-hFc [4] = biological target: T2, SARS-CoV-2 Spike S1-hFc; test: Octet BLI; Fab as analyte over S1-hFc on AHC sensors; 1:1 kinetic fit
SARS-CoV-2 Spike RBD-hFc [5] = biological target: T1, SARS-CoV-2 Spike RBD-hFc; test: Octet BLI; Fab as analyte over RBD-hFc on AHC sensors; 1:1 kinetic fit
SARS-CoV-2 Spike RBD-hFc [6] = biological target: T1, SARS-CoV-2 Spike RBD-hFc; test: Octet, Fab as analyte over RBD-hFc on AHC sensor
SARS-CoV-2 Spike RBD-hFc [7] = biological target: T1, SARS-CoV-2 Spike RBD-hFc; test: Octet BLI; Fab as analyte over RBD-hFc on AHC sensors; steady-state analysis
[8] = biological target: SARS-CoV-2 Spike on SARS-CoV2-S CHO-K1 cells (wild-type, Wuhan-1) (SARS-CoV-2, UniProt P0DTC2 13-1273); test: flow cytometry on SARS-CoV2-S CHO-K1 cells, anti-human IgG-PE detection

B1: 23-H7 (antibody, V domains shown)
VH: QVQLVQSGAEVKLPGASMKVSCKASGYTFSTYYMHWVRQAPGQGPEWMGVIDPSGGTTSYAQKFHDRIAMTRDTSTSTAYLELSSLRSEDMAVYYCARGGFADAVDYWGQGTLVTVSS
VL: NFMLTQPHSVSGSPGKTVTISCTRNSGSIAGNYVQWYQQRPGSAPTTVIYEDNQRPSGVPDRFSGSIDSSSNSASLTISGLKTEDEADYYCQSYDASHLHVIFGGGTKVTVL
notes: also called bin 2
- Pseudovirus IC50 [1]: 0.84 µg/mL
- binding result (Wuhan-1): binds

B2: 23-H7 Fab (Fab, V domains shown)
VH: B1 VH
VL: B1 VL
- Kd (SARS-CoV-2 Spike RBD-hFc [2]): 9 nM
- Kd (SARS-CoV-2 Spike S1-hFc [3]): 6 nM
- Kd (SARS-CoV-2 Spike S1-hFc [4]): 14 nM
- Kd (SARS-CoV-2 Spike RBD-hFc [5]): 13 nM

B3: 27-A11 (antibody, V domains shown)
VH: QVQLVQSGAEVKKPGASVKVSCKASGYTFTSYYMHWVRQAPGQGLEWMGIIDPSGGSTSYAQKFQGRVTLTRDTSTSTVYMELSSLRSEDTAVYYCARSRDGYIDDAFDIWGQGTLVTVSS
VL: QSVLTQPPSVSAAPGQKVTISCSGSSSNIGNNYVSWYQQLPGTAPKLLIYDNNKRPSGIPDRFSGSKSGTSATLGITGLQTGDEADYYCGTWDSSLSAGVFGGGTKLTVL
- Pseudovirus IC50 [1]: 12.8 µg/mL

B4: 23-A11 (antibody, V domains shown)
VH: QVQLVESGGGVVQPGRSLRLSCAASGFTFSSYGMHWVRQAPGKGLEWVAVISYDGSNKYYADSVKGRFTISRDNSKNTLYLQMNSLRAEDTAVYYCAKEGELRGAFDIWGQGTMVTVSS
VL: SYVLTQPPSVSVAPGKTARITCGGDNIESKYVHWYQQKPGQAPVLVIYYDTDRPSGIPERFSGANSGNSATLTISRVEAGDEADYYCQVWDRTSGHFVFGPGTKVTVL
- Pseudovirus IC50 [1]: > 42 µg/mL

B5: 21-H1 (antibody, V domains shown)
VH: B4 VH with M114T
VL: DIVMTQSPLSLPVTPGEPASISCTSSQSLLHSIGYNFVDWYLQKPGQSPQLLIYSASNRASGVPDRFSGSGSGTDFTLKISRVEAEDVGVYYCMQALQRTLYTFGQGTKVESK
- Pseudovirus IC50 [1]: > 42 µg/mL

B6: 22-D9 (antibody, V domains shown)
VH: QVQLVQSGAEVKKPGSSVNVSCKTSGGTFNTYSINWVRQAPGQGLEWMGEIIPIFDKPNYAQKFQGRVTITADESTSTAYMELTSLRSDDTAVYYCARGTGYYYGMDVWGQGTTVTVSS
VL: QSVLTQPPSVSGAPRQTVTISCFGSRSNIGNYPVNWYHQVPGKAPKVVVYYDDLLPSGISDRFSGYKSGTSASLTISGLRSEDEADYYCATWDDSLNVWVFGGGTKLTVL
notes: also called bin 4
- Pseudovirus IC50 [1]: 4.99 µg/mL
- binding result (Wuhan-1): binds

B7: 22-D9 Fab (Fab, V domains shown)
VH: B6 VH
VL: B6 VL
- Kd (SARS-CoV-2 Spike RBD-hFc [6]): 160 nM
- Kd (SARS-CoV-2 Spike RBD-hFc [7]): 163 nM

B8: 22-E8 (antibody, V domains shown)
VH: QVQLVQSGAEVKKPGSSVKVSCKASGGTFSSYAISWVRQAPGQGLEWMGGIIPIFGTTNYAQKFQGRVTITADESTSTAYMELSSLRSEDTAVYYCARDHGYYYGMDVWGQGTTVTVSS
VL: QSVLTQPSSVSAAPRQRVTLSCSGGDSNIGQNGVNWYLHVPGKAPRLVVYYDYLVSAGMSARFSGSRSGTSASLAISGLQSEDEGVYYCASWDDSLSAWVFGGGTKLTVL
- Pseudovirus IC50 [1]: 11.2 µg/mL

B9: 11-H1 (antibody, V domains shown)
VH: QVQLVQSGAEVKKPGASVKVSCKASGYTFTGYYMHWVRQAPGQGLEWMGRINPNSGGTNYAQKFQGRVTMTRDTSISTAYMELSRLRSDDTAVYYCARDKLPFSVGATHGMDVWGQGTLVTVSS
VL: QSVLTQPPSVSEAPRQRVTISCSGSSSNIGNNAVNWYQQLPGQAPRLLIYYDNLLPSGVSDRFSASTSGTSASLAISDLRSEDEADYYCASWDDRLDSPVFGGGTKLTVL
- Pseudovirus IC50 [1]: > 42 µg/mL

B10: 8-A2 (antibody, V domains shown)
VH: QVQLVQSGAEVKKPGASVKVSCKASGYTFTGYYLHWVRQAPGQGLEWMGRINPNSGGTNYAQKFQGRVTMTRDTSISTAYMELSRLTSDDTAVYYCLAVAGTGGDAFDIWGQGTTVTVSS
VL: DIQMTQSPSTLSASVGDRVTITCRASQSISSWLAWYQQKPGKAPKLLIYAASSLESGVPSRFSGSGSGTDFTLTISSLQPEDFATYYCQQGHSFPLTFGGGTKVDIK
- Pseudovirus IC50 [1]: > 42 µg/mL

B11: 2-A6 (antibody, V domains shown)
VH: QVTLRESGPALVKPTQTLTLTCTFSGFSLNTRGMSVSWIRQPPGKALEWLALIDWEDDKFYRTSLMTRLTISKDIFKNQVVLTMTNVDPVDTGTYYCARTYSVGVKYFGMDVWGQGTTVTVSS
VL: SSELTQDPAVSVALGQTVRITCQGDSLRNYYASWYRQEPGQAPILLIYGGNYRPSGIPDRFSGSSSGNTASLTITGAQAEDEADYYCNSRDSSGNHVVFGGGTKLTVL
notes: also called bin S2
- Pseudovirus IC50 [1]: > 42 µg/mL

B12: 22-F7 (antibody, V domains shown)
VH: QVQLVESGGGVVQPGRSLRLSCAASGFSFTNYGMHWVRQAPGKGLEWVAVISYDGSIKYYEDSLKGRFTVSRDNSKKTLYLQMNSLRAEDTAVYYCTRERGTGIDYWGLGTLVTVSS
VL: QSALTQPASVSGYPGQSITLSCTGTKSDIGAYNYVSWYQQHPGKAPKLMVYDVSNRPSGLSNRFSGSKSDNTASLTISGLQAEDEAHYYCSSYTTSGTVVFGGGTKVTVL
notes: also called bin C
- Pseudovirus IC50 [1]: 12.6 µg/mL

B13: 21-F2 (antibody, V domains shown)
VH: QVQLVQSGAEVKKPGASVTVSCKTSGYIFTNYDINWVRQAPGQGLEWVGWVNPNSGKVGYAQKFQGRVIMTRSDSESTAYMELTNLTSDDTAVYYCARGHTDFWGQGTLVTVSS
VL: QSVLTQPPSVSEAPRQRVTISCSGSSSNIGNNAVNWYQQLPGRAPKLLIYYDDLLPSGVSDRFSGSKSGTSASLAISGLQSEDEADYYCAAWDDSLNGVVFGGGTQLTVL
- Pseudovirus IC50 [1]: 0.84 µg/mL

B14: 21-F2 optimized (antibody, V domains shown)
VH: B13 VH with N85Q
VL: B13 VL
- binding result [8]: binds

B15: 5-B6 (antibody, V domains shown)
VH: QVQLVQSGAEVKKPGSSVKVSCKASGGTFSSYAISWVRQAPGQGLEWVGGIIPMFNSASYAQKFQGKVTITADKATNTAYMELSSLRSEDTAVYYCARESSGYYYVSNWFDPWGQGTLVTVSS
VL: QSVLTQPSSVSGAPGQRVTISCTGSSSNIGAGYDVHWYQQIPGTAPRLLIYANSGRASGVPDRFSGSKSGTSASLAITGLQAEDEADYYCQSYDSSLSGVVFGGGTKLTVL
- Pseudovirus IC50 [1]: > 42 µg/mL

B16: 24-B8 (antibody, V domains shown)
VH: QVQLVQSGAEVKKPGSSVKVSCKASGGTFSNYAISWVRQAPGQGLEWMGGIIPILDTTNYAQKFQGRVTITADESTSTAYMELNSLRSEDTAVYYCVREEGFDYWGQGTLVTVSS
VL: QSVLTQPSSLSASPGASASLTCTLRSGINVGAYNIYWYQQKPGSPPQFVLRYNSDSDNQQGSGVPSRFSGSKDASANAGILLISGLQSEDEAEYYCMIWRSSAWVFGGGTKLTVL
- Pseudovirus IC50 [1]: 6.26 µg/mL
